Results on one substance are retold here after PMC10164616.

A word on the stoichiometry N: it is the number of molecules, sites or subunits per partner or assembly.

The target of the assay is monomeric receptor binding domain from SARS-CoV-2 Spike protein, RBD (319-541)-His6 (SARS-CoV-2) (UniProt P0DTC2). The assay can be described thus: SEC.

The substance “monomeric receptor binding domain from SARS-CoV-2 Spike protein, RBD (319-541)-His6 (from UniProt P0DTC2 319-541) (domain or fragment)” displayed a percent dimer (GF-HPLC, first week at 37 °C) of 14% and a stoichiometry N of 2.
